The values that follow come from the Human Domainome abundance scans (Beltran et al. 2025).

The chains are these.
B1: RNA-binding E3 ubiquitin-protein ligase MEX3C, residues 325 to 391; numbered along this chain, Q5U5Q3 (parent)
chain: GQTTVQVRVPYRVVGLVVGPKGATIKRIQQQTHTYIVTPSRDKEPVFEVTGMPENVDRAREEIEMHI

± gives the uncertainty stated by the source.

Variants of B1 are the subject of the data set. The data set is described as follows: abundance fitness (aPCA) (normalised: wild type 0, dead -1); higher = more abundant; growth selection in yeast, the domain comes from the species named. The settings on record: Homo sapiens.
Take GQTTVQVRVPYRVVGLVVGPKGATIKRIQQQTHTYIVTPSSDKEPVFEVTGMPENVDRAREEIEMHI: the abundance fitness is -0.047 ± 0.062.
In the case of GQTTVQVRVPYRVVGLVVGPKGATIKRIQQQTHTYIVTPSGDKEPVFEVTGMPENVDRAREEIEMHI, the abundance fitness was -0.154 ± 0.037.
Take GQTTVQVRVPYRVVGLVVGPKGATIKRIQQQTHTYIVTPSFDKEPVFEVTGMPENVDRAREEIEMHI: the abundance fitness is -0.343 ± 0.17.
For GQTTVQVRVPYRVVGLVVGPKGATIKRIQQQTHTYIVTPSEDKEPVFEVTGMPENVDRAREEIEMHI, the abundance fitness was -0.021 ± 0.074.
Consider GQTTVQVRVPYRVVGLVVGPKGATIKRIQQQTHTYIVTPSCDKEPVFEVTGMPENVDRAREEIEMHI, for which the abundance fitness is -0.067 ± 0.082.
For the variant GQTTVQVRVPYRVVGLVVGPKGATIKRIQQQTHTYIVTPSHDKEPVFEVTGMPENVDRAREEIEMHI, the abundance fitness was -0.109 ± 0.14.
GQTTVQVRVPYRVVGLVVGPKGATIKRIQQQTHTYIVTPSKDKEPVFEVTGMPENVDRAREEIEMHI: the abundance fitness stood at 0.019 ± 0.15.
Take GQTTVQVRVPYRVVGLVVGPKGATIKRIQQQTHTYIVTPSNDKEPVFEVTGMPENVDRAREEIEMHI: the abundance fitness was -0.058 ± 0.16.
Take GQTTVQVRVPYRVVGLVVGPKGATIKRIQQQTHTYIVTPSTDKEPVFEVTGMPENVDRAREEIEMHI: the abundance fitness is -0.021 ± 0.083.
Take GQTTVQVRVPYRVVGLVVGPKGATIKRIQQQTHTYIVTPSYDKEPVFEVTGMPENVDRAREEIEMHI: the abundance fitness is -0.212 ± 0.28.
As for GQTTVQVRVPYRVVGLVVGPKGATIKRIQQQTHTYIVTPSPDKEPVFEVTGMPENVDRAREEIEMHI, the abundance fitness is 0.071 ± 0.094.
Regarding GQTTVQVRVPYRVVGLVVGPKGATIKRIQQQTHTYIVTPSLDKEPVFEVTGMPENVDRAREEIEMHI, the abundance fitness is -0.21 ± 0.06.
As for GQTTVQVRVPYRVVGLVVGPKGATIKRIQQQTHTYIVTPSDDKEPVFEVTGMPENVDRAREEIEMHI, the abundance fitness was 0.048 ± 0.11.
Turning to GQTTVQVRVPYRVVGLVVGPKGATIKRIQQQTHTYIVTPSADKEPVFEVTGMPENVDRAREEIEMHI, the abundance fitness turned out to be 0.017 ± 0.056.
Regarding GQTTVQVRVPYRVVGLVVGPKGATIKRIQQQTHTYIVTPSIDKEPVFEVTGMPENVDRAREEIEMHI, the abundance fitness was -0.15 ± 0.17.
Regarding GQTTVQVRVPYRVVGLVVGPKGATIKRIQQQTHTYIVTPSWDKEPVFEVTGMPENVDRAREEIEMHI, the abundance fitness is -0.245 ± 0.073.
In the case of GQTTVQVRVPYRVVGLVVGPKGATIKRIQQQTHTYIVTPSMDKEPVFEVTGMPENVDRAREEIEMHI, the abundance fitness is -0.168 ± 0.078.
Consider GQTTVQVRVPYRVVGLVVGPKGATIKRIQQQTHTYIVTPSVDKEPVFEVTGMPENVDRAREEIEMHI, for which the abundance fitness was -0.088 ± 0.063.
Take GQTTVQVRVPYRVVGLVVGPKGATIKRIQQQTHTYIVTPSRDDEPVFEVTGMPENVDRAREEIEMHI: the abundance fitness worked out at 0.131 ± 0.078.
Consider GQTTVQVRVPYRVVGLVVGPKGATIKRIQQQTHTYIVTPSRDGEPVFEVTGMPENVDRAREEIEMHI, for which the abundance fitness is 0.108 ± 0.035.
For GQTTVQVRVPYRVVGLVVGPKGATIKRIQQQTHTYIVTPSRDCEPVFEVTGMPENVDRAREEIEMHI, the abundance fitness was -0.1 ± 0.067.
For the variant GQTTVQVRVPYRVVGLVVGPKGATIKRIQQQTHTYIVTPSRDIEPVFEVTGMPENVDRAREEIEMHI, the abundance fitness was -0.583 ± 0.14.
For the variant GQTTVQVRVPYRVVGLVVGPKGATIKRIQQQTHTYIVTPSRDHEPVFEVTGMPENVDRAREEIEMHI, the abundance fitness worked out at 0.012 ± 0.093.
As for GQTTVQVRVPYRVVGLVVGPKGATIKRIQQQTHTYIVTPSRDEEPVFEVTGMPENVDRAREEIEMHI, the abundance fitness is -0.191 ± 0.072.
Consider GQTTVQVRVPYRVVGLVVGPKGATIKRIQQQTHTYIVTPSRDMEPVFEVTGMPENVDRAREEIEMHI, for which the abundance fitness was found to be 0.125 ± 0.078.
Turning to GQTTVQVRVPYRVVGLVVGPKGATIKRIQQQTHTYIVTPSRDAEPVFEVTGMPENVDRAREEIEMHI, the abundance fitness worked out at 0.058 ± 0.05.
In the case of GQTTVQVRVPYRVVGLVVGPKGATIKRIQQQTHTYIVTPSRDLEPVFEVTGMPENVDRAREEIEMHI, the abundance fitness was -0.579 ± 0.081.
Consider GQTTVQVRVPYRVVGLVVGPKGATIKRIQQQTHTYIVTPSRDFEPVFEVTGMPENVDRAREEIEMHI, for which the abundance fitness is -0.431 ± 0.13.
GQTTVQVRVPYRVVGLVVGPKGATIKRIQQQTHTYIVTPSRLKEPVFEVTGMPENVDRAREEIEMHI: the abundance fitness is -0.263 ± 0.066.
In the case of GQTTVQVRVPYRVVGLVVGPKGATIKRIQQQTHTYIVTPSRWKEPVFEVTGMPENVDRAREEIEMHI, the abundance fitness was -0.335 ± 0.088.
Turning to GQTTVQVRVPYRVVGLVVGPKGATIKRIQQQTHTYIVTPSRSKEPVFEVTGMPENVDRAREEIEMHI, the abundance fitness was -0.332 ± 0.08.
Take GQTTVQVRVPYRVVGLVVGPKGATIKRIQQQTHTYIVTPSRPKEPVFEVTGMPENVDRAREEIEMHI: the abundance fitness is -1.01 ± 0.31.
As for GQTTVQVRVPYRVVGLVVGPKGATIKRIQQQTHTYIVTPSRKKEPVFEVTGMPENVDRAREEIEMHI, the abundance fitness is -0.139 ± 0.11.
In the case of GQTTVQVRVPYRVVGLVVGPKGATIKRIQQQTHTYIVTPSRCKEPVFEVTGMPENVDRAREEIEMHI it was -0.425 ± 0.12; in that of GQTTVQVRVPYRVVGLVVGPKGATIKRIQQQTHTYIVTPSRVKEPVFEVTGMPENVDRAREEIEMHI, -0.465 ± 0.069; in that of GQTTVQVRVPYRVVGLVVGPKGATIKRIQQQTHTYIVTPSRTKEPVFEVTGMPENVDRAREEIEMHI, -0.245 ± 0.078.
For GQTTVQVRVPYRVVGLVVGPKGATIKRIQQQTHTYIVTPSRYKEPVFEVTGMPENVDRAREEIEMHI, the abundance fitness is -0.181 ± 0.1.
For the variant GQTTVQVRVPYRVVGLVVGPKGATIKRIQQQTHTYIVTPSRQKEPVFEVTGMPENVDRAREEIEMHI, the abundance fitness was -0.122 ± 0.11.
As for GQTTVQVRVPYRVVGLVVGPKGATIKRIQQQTHTYIVTPSRFKEPVFEVTGMPENVDRAREEIEMHI, the abundance fitness is -0.198 ± 0.17.
GQTTVQVRVPYRVVGLVVGPKGATIKRIQQQTHTYIVTPSRAKEPVFEVTGMPENVDRAREEIEMHI: the abundance fitness is -0.292 ± 0.056.
